Test results taken from the Immune Epitope Database (IEDB).
Values belong to the sequence of their own block, whether it stands above or below them.

What was measured:
[1] = biological target: HLA-B*07:02; assay: IEDB peptide-MHC binding, purified MHC/competitive/radioactivity; filed as Kd, often an IC50 or EC50 that approximates it; ≥ and ≤ were set here for values at or beyond the usual limits of such assays
[2] = biological target: HLA-A*02:01; assay: IEDB peptide-MHC binding, purified MHC/competitive/fluorescence; ≥ and ≤ were set here for values at or beyond the usual limits of such assays
[3] = biological target: HLA-A*24:02; assay: as above
[4] = biological target: HLA-B*40:02; assay: IEDB peptide-MHC binding, purified MHC/competitive/radioactivity; filed as Kd, often an IC50 or EC50 that approximates it; ≥ and ≤ were set here for values at or beyond the usual limits of such assays
[5] = biological target: HLA-B*40:01; assay: as above
[6] = biological target: HLA-B*44:03; assay: as above
[7] = biological target: HLA-B*45:01; assay: as above
[8] = biological target: HLA-B*18:01; assay: as above
[9] = biological target: HLA-B*44:02; assay: as above
[10] = biological target: HLA-B*08:01; assay: IEDB peptide-MHC binding, purified MHC/direct/fluorescence; filed as Kd, often an IC50 or EC50 that approximates it; ≥ and ≤ were set here for values at or beyond the usual limits of such assays
[11] = biological target: HLA-A*31:01; assay: as above
[12] = biological target: HLA-B*07:02; assay: as above
[13] = biological target: HLA-B*15:01; assay: as above
[14] = biological target: HLA-B*27:05; assay: as above
[15] = biological target: HLA-B*58:01; assay: as above
[16] = biological target: HLA-A*26:01; assay: as above
[17] = biological target: HLA-B*40:01; assay: as above
[18] = biological target: HLA-A*69:01; assay: as above
[19] = biological target: HLA-A*02:01; assay: as above
[20] = biological target: HLA-A*03:01; assay: as above
[21] = biological target: HLA-A*11:01; assay: as above
[22] = biological target: HLA-B*44:02; assay: as above
[23] = biological target: HLA-A*01:01; assay: as above
[24] = biological target: HLA-B*35:01; assay: IEDB peptide-MHC binding, purified MHC/competitive/radioactivity; filed as Kd, often an IC50 or EC50 that approximates it; ≥ and ≤ were set here for values at or beyond the usual limits of such assays
[25] = biological target: HLA-B*53:01; assay: as above; conditions: source organism: Dengue virus 3 Martinique/1243/1999
[26] = biological target: HLA-A*30:02; assay: as above; conditions: source organism: Dengue virus 1 Brazil/97-11/1997
[27] = biological target: HLA-A*68:02; assay: as above
[28] = biological target: HLA-A*26:01; assay: as above; conditions: source organism: Dengue virus 3 Martinique/1243/1999
[29] = biological target: HLA-B*51:01; assay: as above; conditions: source organism: Dengue virus 4 Philippines/H241/1956
[30] = biological target: HLA-A*02:06; assay: as above; conditions: source organism: Homo sapiens
[31] = source organism: Sudan ebolavirus
[32] = source organism: Vaccinia virus WR
[33] = source organism: Zaire ebolavirus
[34] = source organism: Lymphocytic choriomeningitis virus (strain Armstrong)
[35] = source organism: SARS coronavirus Tor2
[36] = source organism: Escherichia coli O157:H7
[37] = source organism: Dengue virus 1 Brazil/97-11/1997
[38] = source organism: Dengue virus 3 Martinique/1243/1999
[39] = source organism: Escherichia coli
[40] = source organism: Cryptosporidium parvum

Sequence: GPMPVTHSSA
Kd ([1]; source organism: Dengue virus 2 Jamaica/1409/1983): 0.00721 µM

Sequence: QSPPIREAV
IC50 [2, 31]: 38.3 µM

Sequence: LFTEQAFYT
IC50 [2, 32]: 68.1 µM
IC50 [3, 32]: 55 µM

Sequence: ANLEDLIEW
IC50 ([3]; source organism: Vaccinia virus): ≥ 235 µM

Sequence: DGQQFYWPV
IC50 [2, 33]: 57.2 µM
IC50 [3, 33]: 62 µM

Sequence: AAIGLAWIP
IC50 [2, 33]: ≥ 280 µM
IC50 [3, 33]: ≥ 131 µM

Sequence: FENAILSMT
Kd [4, 34]: 0.0323 µM
Kd [5, 34]: 18.4 µM
Kd [6, 34]: 6.37 µM
Kd [7, 34]: 1.82 µM
Kd [8, 34]: 3.3 µM
Kd [9, 34]: 6.48 µM

Sequence: LEVKFNAPA
Kd [4, 35]: 0.00933 µM
Kd [5, 35]: 5.31 µM
Kd [6, 35]: 6.01 µM
Kd [7, 35]: 0.00446 µM
Kd [8, 35]: 0.111 µM
Kd [9, 35]: ≥ 21.3 µM

Kd [10, 36]: ≥ 20 µM
Kd [11, 36]: ≥ 20 µM
Kd [12, 36]: ≥ 20 µM
Kd [13, 36]: ≥ 20 µM
Kd [14, 36]: ≥ 20 µM
Kd [15, 36]: ≥ 20 µM
Kd [16, 36]: ≥ 20 µM
Kd [17, 36]: ≥ 10 µM
Kd [18, 36]: ≥ 20 µM
Kd [19, 36]: ≥ 20 µM
Kd [20, 36]: ≥ 20 µM
Kd [21, 36]: ≥ 20 µM
Kd [22, 36]: ≥ 20 µM
Kd [23, 36]: ≥ 20 µM
Sequence: RFDEAIINY

Sequence: KPSGSASSM
Kd [1, 37]: 0.00488 µM

Sequence: MPGTFQTTTG
Kd [24, 38]: 0.157 µM
Kd [25]: 0.427 µM

Sequence: YVSAGESSI
IC50 ([2]; source organism: Vaccinia virus Copenhagen): 32.7 µM

Sequence: HALLATSIF
Kd [24, 37]: 0.0168 µM

Sequence: TQETITETA
IC50 [2, 31]: ≥ 184 µM

Sequence: YKVASEGFQY
Kd [26]: 0.135 µM
Kd [24, 37]: 3.92 µM

Sequence: ETQGVTAEI
Kd [27, 38]: 0.00296 µM
Kd [28]: 0.282 µM

Sequence: SPARLASAI
Kd ([1]; source organism: Dengue virus 4 Philippines/H241/1956): 0.00268 µM
Kd [29]: 0.532 µM

Kd [10, 39]: ≥ 20 µM
Kd [12, 39]: ≥ 20 µM
Kd [13, 39]: ≥ 20 µM
Kd [14, 39]: ≥ 20 µM
Kd [15, 39]: ≥ 20 µM
Kd [16, 39]: ≥ 20 µM
Kd [17, 39]: ≥ 20 µM
Kd [18, 39]: ≥ 20 µM
Kd [19, 39]: ≥ 20 µM
Kd [20, 39]: ≥ 20 µM
Kd [21, 39]: 1.58 µM
Kd [23, 39]: ≥ 20 µM
Sequence: TVANNPDDK

Kd ([27]; source organism: Homo sapiens): 0.826 µM
Kd [30]: ≥ 78.7 µM
Sequence: DLKDQIAQL

Sequence: DFIGKTIGF
Kd [10, 40]: ≥ 20 µM
Kd [11, 40]: ≥ 20 µM
Kd [12, 40]: ≥ 20 µM
Kd [13, 40]: ≥ 20 µM
Kd [14, 40]: ≥ 20 µM
Kd [15, 40]: ≥ 20 µM
Kd [16, 40]: 0.186 µM
Kd [17, 40]: ≥ 20 µM
Kd [18, 40]: ≥ 20 µM
Kd [19, 40]: ≥ 20 µM
Kd [20, 40]: ≥ 20 µM
Kd [21, 40]: ≥ 20 µM
Kd [22, 40]: ≥ 20 µM
Kd [23, 40]: ≥ 20 µM
